Twelve molecules from patent US20220283175A1 (ENCODIA, published 2022) can be followed below.

First the molecules themselves.
B1: (SAB)AFAAE (peptide)
peptide: {Benzoyl(4-SO2NH2)}-AFAAE-NH2
SMILES: C[C@H](NC(=O)c1ccc(S(N)(=O)=O)cc1)C(=O)N[C@@H](Cc1ccccc1)C(=O)N[C@@H](C)C(=O)N[C@@H](C)C(=O)N[C@@H](CCC(=O)O)C(N)=O
B2: (SAB)AAAAE (peptide)
peptide: {Benzoyl(4-SO2NH2)}-AAAAE-NH2
SMILES: C[C@H](NC(=O)c1ccc(S(N)(=O)=O)cc1)C(=O)N[C@@H](C)C(=O)N[C@@H](C)C(=O)N[C@@H](C)C(=O)N[C@@H](CCC(=O)O)C(N)=O
B3: (SAB)HAAAE (peptide)
peptide: {Benzoyl(4-SO2NH2)}-HAAAE-NH2
SMILES: C[C@H](NC(=O)[C@H](C)NC(=O)[C@H](Cc1c[nH]cn1)NC(=O)c1ccc(S(N)(=O)=O)cc1)C(=O)N[C@@H](C)C(=O)N[C@@H](CCC(=O)O)C(N)=O
B4: (SAB)EAAAE (peptide)
peptide: {Benzoyl(4-SO2NH2)}-EAAAE-NH2
SMILES: C[C@H](NC(=O)[C@H](C)NC(=O)[C@H](CCC(=O)O)NC(=O)c1ccc(S(N)(=O)=O)cc1)C(=O)N[C@@H](C)C(=O)N[C@@H](CCC(=O)O)C(N)=O
B5: (SAB)SAAAE (peptide)
peptide: {Benzoyl(4-SO2NH2)}-SAAAE-NH2
SMILES: C[C@H](NC(=O)[C@H](C)NC(=O)[C@H](CO)NC(=O)c1ccc(S(N)(=O)=O)cc1)C(=O)N[C@@H](C)C(=O)N[C@@H](CCC(=O)O)C(N)=O
B6: (SAB)FAAAE (peptide)
peptide: {Benzoyl(4-SO2NH2)}-FAAAE-NH2
SMILES: C[C@H](NC(=O)[C@H](C)NC(=O)[C@H](Cc1ccccc1)NC(=O)c1ccc(S(N)(=O)=O)cc1)C(=O)N[C@@H](C)C(=O)N[C@@H](CCC(=O)O)C(N)=O
B7: (SAB)LAAAE (peptide)
peptide: {Benzoyl(4-SO2NH2)}-LAAAE-NH2
SMILES: CC(C)C[C@H](NC(=O)c1ccc(S(N)(=O)=O)cc1)C(=O)N[C@@H](C)C(=O)N[C@@H](C)C(=O)N[C@@H](C)C(=O)N[C@@H](CCC(=O)O)C(N)=O
B8: M75-AAEIR (peptide)
peptide: M75-AAEIR
modifications: not fully specified; printed as M75-AAEIR; reading uncertain
B9: M67-AAEIR (peptide)
peptide: M67-AAEIR
modifications: not fully specified; printed as M67-AAEIR; reading uncertain
B10: M76-AAEIR (peptide)
peptide: M76-AAEIR
modifications: not fully specified; printed as M76-AAEIR; reading uncertain
B11: M88-AAEIR (peptide)
peptide: M88-AAEIR
modifications: not fully specified; printed as M88-AAEIR; reading uncertain
B12: M65-AAEIR (peptide)
peptide: M65-AAEIR
modifications: not fully specified; printed as M65-AAEIR; reading uncertain

No end group written: not given here. *: point of attachment. Benzoyl(4-SO2NH2) = NS(=O)(=O)c1ccc(C(=O)*)cc1; M65 = not defined here; M67 = not defined here; M75 = not defined here; M76 = not defined here; M88 = not defined here

One assay has as its target T1, wild-type human carbonic anhydrase II (hCAII) protein (human, UniProt P00918 4-259). Description: cell-based or functional assay.
B1: the “P2 dependence: fold difference of IC50 (SABA-AF against SABA-AA)” value is roughly 4 fold.

The target of another assay is T1, wild-type human carbonic anhydrase II …. Description: cell-based or functional assay. This is another data set of the same source.
For B2, the “IC50 (µM), hCAII functional assay” value was found to be 0.0484 µM. Same read-out and setting: the result for B3 reads 0.148 µM; that for B4, 0.0993 µM. Take B5: the “IC50 (µM), hCAII functional assay” value is 0.153 µM.

For B1, the “IC50 (µM), hCAII functional assay” value was determined as 0.183 µM. In the case of B6, the “IC50 (µM), hCAII functional assay” value amounted to 0.045 µM. The same measure, in the same setting: the value for B7 was 0.0284 µM.

For another assay the target is unchanged. Description: cell-based or functional assay. The source holds these as a separate data set.
With B8, the “NTM-AAEIR IC50 (µM), colorimetric IC50 assay” value was found to be 0.067 µM. Same read-out and setting: the value for B9 was 0.073 µM; that for B10 was 0.077 µM; that for B11 was 0.095 µM. Consider B12, for which the “NTM-AAEIR IC50 (µM), colorimetric IC50 assay” value is 0.515 µM.
